Laboratory results taken from IntAct's records for PubMed 31515488.

B1: Calcium-binding and coiled-coil domain-containing protein 2 (Homo sapiens), Q13137 (parent)
chain: MEETIKDPPTSAVLLDHCHFSQVIFNSVEKFYIPGGDVTCHYTFTQHFIPRRKDWIGIFRVGWKTTREYYTFMWVTLPIDLNNKSAKQQEVQFKAYYLPKDDEYYQFCYVDEDGVVRGASIPFQFRPENEEDILVVTTQGEVEEIEQHNKELCKENQELKDSCISLQKQNSDMQAELQKKQEELETLQSINKKLELKVKEQKDYWETELLQLKEQNQKMSSENEKMGIRVDQLQAQLSTQEKEMEKLVQGDQDKTEQLEQLKKENDHLFLSLTEQRKDQKKLEQTVEQMKQNETTAMKKQQELMDENFDLSKRLSENEIICNALQRQKERLEGENDLLKRENSRLLSYMGLDFNSLPYQVPTSDEGGARQNPGLAYGNPYSGIQESSSPSPLSIKKCPICKADDICDHTLEQQQMQPLCFNCPICDKIFPATEKQIFEDHVFCHSL
partner: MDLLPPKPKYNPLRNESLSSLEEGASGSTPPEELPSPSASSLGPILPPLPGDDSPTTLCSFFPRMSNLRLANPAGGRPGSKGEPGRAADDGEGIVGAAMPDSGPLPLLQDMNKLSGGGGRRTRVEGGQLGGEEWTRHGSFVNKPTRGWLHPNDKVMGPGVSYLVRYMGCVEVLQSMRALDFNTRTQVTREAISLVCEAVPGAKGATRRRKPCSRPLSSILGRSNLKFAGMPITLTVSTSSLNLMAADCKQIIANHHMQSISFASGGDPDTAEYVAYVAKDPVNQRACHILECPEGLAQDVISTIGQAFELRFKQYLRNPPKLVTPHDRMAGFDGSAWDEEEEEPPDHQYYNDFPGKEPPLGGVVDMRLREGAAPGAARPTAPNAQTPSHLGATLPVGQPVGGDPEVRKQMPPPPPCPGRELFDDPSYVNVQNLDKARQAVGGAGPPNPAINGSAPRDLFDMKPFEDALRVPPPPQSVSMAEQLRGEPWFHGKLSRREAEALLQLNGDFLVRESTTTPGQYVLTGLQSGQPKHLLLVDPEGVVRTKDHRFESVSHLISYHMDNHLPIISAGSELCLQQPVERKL
B2: Keratin, type II cytoskeletal 6A (Homo sapiens), P02538 (parent)
chain: MASTSTTIRSHSSSRRGFSANSARLPGVSRSGFSSVSVSRSRGSGGLGGACGGAGFGSRSLYGLGGSKRISIGGGSCAISGGYGSRAGGSYGFGGAGSGFGFGGGAGIGFGLGGGAGLAGGFGGPGFPVCPPGGIQEVTVNQSLLTPLNLQIDPTIQRVRAEEREQIKTLNNKFASFIDKVRFLEQQNKVLETKWTLLQEQGTKTVRQNLEPLFEQYINNLRRQLDSIVGERGRLDSELRGMQDLVEDFKNKYEDEINKRTAAENEFVTLKKDVDAAYMNKVELQAKADTLTDEINFLRALYDAELSQMQTHISDTSVVLSMDNNRNLDLDSIIAEVKAQYEEIAQRSRAEAESWYQTKYEELQVTAGRHGDDLRNTKQEIAEINRMIQRLRSEIDHVKKQCANLQAAIADAEQRGEMALKDAKNKLEGLEDALQKAKQDLARLLKEYQELMNVKLALDVEIATYRKLLEGEECRLNGEGVGQVNISVVQSTVSSGYGGASGVGSGLGLGGGSSYSYGSGLGVGGGFSSSSGRAIGGGLSSVGGGSSTIKYTTTSSSSRKSYKH
partner: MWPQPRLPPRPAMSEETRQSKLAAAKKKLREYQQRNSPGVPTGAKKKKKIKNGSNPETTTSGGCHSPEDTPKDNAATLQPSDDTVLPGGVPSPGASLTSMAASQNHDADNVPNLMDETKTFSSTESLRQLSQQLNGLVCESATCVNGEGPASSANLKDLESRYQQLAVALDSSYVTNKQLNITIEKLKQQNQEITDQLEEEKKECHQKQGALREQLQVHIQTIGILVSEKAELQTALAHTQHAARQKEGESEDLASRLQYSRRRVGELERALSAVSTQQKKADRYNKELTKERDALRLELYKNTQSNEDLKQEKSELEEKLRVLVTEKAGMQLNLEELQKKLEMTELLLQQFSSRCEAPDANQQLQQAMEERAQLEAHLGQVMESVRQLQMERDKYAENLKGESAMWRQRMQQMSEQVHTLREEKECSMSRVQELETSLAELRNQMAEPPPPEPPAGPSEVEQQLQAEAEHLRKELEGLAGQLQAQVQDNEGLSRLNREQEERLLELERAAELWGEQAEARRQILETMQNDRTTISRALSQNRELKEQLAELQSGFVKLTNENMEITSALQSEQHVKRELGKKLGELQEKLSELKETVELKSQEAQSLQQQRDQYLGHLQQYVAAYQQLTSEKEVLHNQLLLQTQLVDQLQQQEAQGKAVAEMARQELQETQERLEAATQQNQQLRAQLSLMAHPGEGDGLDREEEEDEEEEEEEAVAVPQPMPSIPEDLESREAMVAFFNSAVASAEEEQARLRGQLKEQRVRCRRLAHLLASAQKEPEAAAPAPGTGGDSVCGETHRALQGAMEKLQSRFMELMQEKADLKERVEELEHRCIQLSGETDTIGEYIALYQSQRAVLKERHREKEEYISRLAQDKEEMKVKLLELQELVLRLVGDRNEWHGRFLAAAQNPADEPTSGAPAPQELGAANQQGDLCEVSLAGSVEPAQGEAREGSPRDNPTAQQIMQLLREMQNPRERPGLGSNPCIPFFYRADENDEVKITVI
B3: E3 ubiquitin-protein ligase DZIP3 (Homo sapiens), Q86Y13 (parent)
chain: MDSLPDEFFVRHPAVEDQRKEETENKLEKSSGQLNKQENDIPTDLVPVNLLLEVKKLLNAINTLPKGVVPHIKKFLQEDFSFQTMQREVAANSQNGEEIVPALTLRFLITQLEAALRNIQAGNYTAHQINIGYYLTLLFLYGVALTERGKKEDYTEAENKFLVMKMMIQENEICENFMSLVYFGRGLLRCAQKRYNGGLLEFHKSLQEIGDKNDHWFDIDPTEDEDLPTTFKDLLNNFIKTTESNIMKQTICSYLDCERSCEADILKNTSYKGFFQLMCSKSCCVYFHKICWKKFKNLKYPGENDQSFSGKKCLKEGCTGDMVRMLQCDVPGIVKILFEVVRKDEYITIENLGASYRKLISLKITDTDIRPKISLKFNTKDEMPIFKLDYNYFYHLLHIIIISGTDIVRQIFDEAMPPPLLKKELLIHKNVLESYYNHLWTNHPLGGSWHLLYPPNKELPQSKQFDLCLLLALIKHLNVFPAPKKGWNMEPPSSDISKSADILRLCKYRDILLSEILMNGLTESQFNSIWKKVSDILLRLGMMQEDIDKVKENPIENISLDYHQLSVYLGIPVPEIIQRMLSCYQQGIALQSITGSQRIEIEELQNEEEELSPPLMEYNINVKSHPEIQFAEINKDGTSIPSESSTESLKDLQEVKSKQRKKKKTKNKKNKDSKEDQVPYVVEKEEQLRKEQANPHSVSRLIKDDASDVQEDSAMEDKFYSLDELHILDMIEQGSAGKVTTDYGETEKERLARQRQLYKLHYQCEDFKRQLRTVTFRWQENQMQIKKKDKIIASLNQQVAFGINKVSKLQRQIHAKDNEIKNLKEQLSMKRSQWEMEKHNLESTMKTYVSKLNAETSRALTAEVYFLQCRRDFGLLHLEQTEKECLNQLARVTHMAASNLESLQLKAAVDSWNAIVADVRNKIAFLRTQYNEQINKVKQGFALSTLPPVQLPPPPPSPEILMQQFLGRPLVKESFFRPILTVPQMPAVCPGVVSATGQPRAPLMTGIAWALPAPVGDAVPPSAGLRSDPSIMNWERITDRLKTAFPQQTRKELTDFLRKLKDAYGKSLSELTFDEIVCKISQFIDPKKSQSQGKSVSNVNCVSPSHSPSQPDAAQPPKPAWRPLTSQGPATWEGASNPDEEEEEEEPCVICHENLSPENLSVLPCAHKFHAQCIRPWLMQQGTCPTCRLHVLLPEEFPGHPSRQLPKI
B4: EKC/KEOPS complex subunit TP53RK (Homo sapiens), Q96S44 (parent)
chain: MAAARATTPADGEEPAPEAEALAAARERSSRFLSGLELVKQGAEARVFRGRFQGRAAVIKHRFPKGYRHPALEARLGRRRTVQEARALLRCRRAGISAPVVFFVDYASNCLYMEEIEGSVTVRDYIQSTMETEKTPQGLSNLAKTIGQVLARMHDEDLIHGDLTTSNMLLKPPLEQLNIVLIDFGLSFISALPEDKGVDLYVLEKAFLSTHPNTETVFEAFLKSYSTSSKKARPVLKKLDEVRLRGRKRSMVG

Variants of: B1
Settings: with shc1_human SHC1, P29353

effect of a mutation on the interaction | Variant
with no effect | E222K

Variants of: B2
Settings: with goga2_human GOLGA2, Q08379

Variant | effect of a mutation on the interaction
L210M | with no effect
R415H | with no effect
A335T | with no effect

Next, values leading:

effect of a mutation on the interaction | Variant
with no effect | V523F
with no effect | T552S
with no effect | R559G

Variants of: B3
Settings: with ub2e2_human UBE2E2, Q96LR5
ub2e2_human UBE2E2, Q96LR5, sequence (Q96LR5 whole entry): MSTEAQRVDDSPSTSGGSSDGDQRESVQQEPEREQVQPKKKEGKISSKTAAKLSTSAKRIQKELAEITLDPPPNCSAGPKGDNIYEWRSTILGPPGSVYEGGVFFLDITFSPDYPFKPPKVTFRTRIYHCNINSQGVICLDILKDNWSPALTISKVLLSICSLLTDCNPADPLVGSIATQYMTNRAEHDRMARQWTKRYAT

effect of a mutation on the interaction | Variant
with no effect | F767L

Variants of: B3
Settings: with zch10_human ZCCHC10, Q8TBK6
zch10_human ZCCHC10, Q8TBK6, sequence (Q8TBK6 whole entry): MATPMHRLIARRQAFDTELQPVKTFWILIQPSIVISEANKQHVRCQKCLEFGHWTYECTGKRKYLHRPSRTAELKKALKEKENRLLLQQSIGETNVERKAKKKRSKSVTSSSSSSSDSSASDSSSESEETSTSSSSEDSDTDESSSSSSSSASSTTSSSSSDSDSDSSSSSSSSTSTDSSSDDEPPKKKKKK

effect of a mutation on the interaction | Variant
with no effect | F767L

Variants of: B4
Settings: with ccdb1_human CCNDBP1, O95273
ccdb1_human CCNDBP1, O95273, sequence (O95273 whole entry): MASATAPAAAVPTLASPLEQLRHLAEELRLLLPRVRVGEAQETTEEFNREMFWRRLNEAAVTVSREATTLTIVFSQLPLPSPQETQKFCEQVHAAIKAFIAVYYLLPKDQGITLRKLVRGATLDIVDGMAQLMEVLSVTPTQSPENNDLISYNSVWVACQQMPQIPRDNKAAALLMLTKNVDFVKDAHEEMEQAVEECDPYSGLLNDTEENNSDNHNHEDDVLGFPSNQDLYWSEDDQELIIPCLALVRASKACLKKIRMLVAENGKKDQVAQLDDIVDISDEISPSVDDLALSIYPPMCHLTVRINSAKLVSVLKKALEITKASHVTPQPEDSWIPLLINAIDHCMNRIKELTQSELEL

effect of a mutation on the interaction | Variant
with no effect | T129A
disrupting interaction strength | R123Q
